Patent US20160193299A1, “MODIFIED NUCLEOSIDE, NUCLEOTIDE, AND NUCLEIC ACID COMPOSITIONS” (Moderna Therapeutics, Inc., priority 2011, published 2016)

Tests used:
HEK293 = test: Example 46B percent-modified G-CSF mRNA transfected in HEK293, secreted G-CSF ELISA; assay type: cell-based, human
Experimental: Human embryonic kidney epithelial (HEK293) cells were seeded on 96-well plates at a density of 30,000 cells per well in 100 ul cell culture medium. 250 ng of modified G-CSF mRNA (SEQ ID NO: 6; polyA tail of approximately 160 nucleotides not shown in sequence; 5′cap, Cap1) formulated with RNAiMAX™ (Invitrogen, Carlsbad, Calif.) was added to a well. The G-CSF was completely modified with 5mC and pseudoU (100% modification), not modified with 5mC and pseudoU (0% modification) or was partially modified with 5mC and pseudoU so the mRNA would contain 75% modification, 50% modification or 25% modification. Control samples (AK 5/2, mCherry (SEQ ID NO: 7; polyA tail of approximately 160 nucleotides not shown in sequence; 5′cap, Cap1; fully modified 5mC and pseudoU) and untreated) were also analyzed. […] The supernatants were harvested after 16 hours and the secreted G-CSF protein was analyzed by ELISA.

red blood cell (RBC) = test: Example 22 non-human primate study, red blood cell (RBC) count; assay type: in vivo, cynomolgus monkey
Experimental: (§1) LNP formulations, shown in Table 31 (above), were administered to non-human primates (NHP) (cynomolgus monkey) (n=2) as intravenous injection (IV). The NHP were administered a single modified mRNA IV dose of 0.5 mg/kg, 0.05 mg/kg or 0.005 mg/kg of G-CSF or EPO in a dose volume of 0.5 mL/kg. The NHPs were bled before dosing with the modified mRNA LNP formulations to determine protein expression in the serum and a baseline complete blood count. After administration with the G-CSF modified mRNA formulation the NHP were bled at 8, 24, 48 and 72 hours to determined protein expression. After administration with the EPO modified mRNA formulation the NHP were bled at 8, 24, 48, 72 hours and 7 days to determined protein expression.

neutrophil count = test: Example 40 multi-site IM and SC administration of G-CSF mRNA, neutrophil count; assay type: in vivo; details: mice, intramuscular, day 3
Experimental: Injection of four doses or 2×50 ug (two sites) daily for three days (24 hrs interval) was performed. The fourth dose was administered 6 hrs before blood collection and CBC analysis. […] The mice were bled at 72 hours after the first mRNA injection (6 hours after the last mRNA dose) to determine the effect of mRNA-encoded human G-CSF on the neutrophil count. The dosing regimen is shown in Table 63 as are the resulting neutrophil counts (thousands/uL). In Table 63, an asterisks (*) indicate statistical significance at p<0.05.

[1] = test system: interferon-alpha (IFN-alpha); test: Example 22 non-human primate study, cytokine interferon-alpha (IFN-alpha); assay type: in vivo, cynomolgus monkey
Experimental: as §1

G-CSF [2] = test: Example 17 LNP in vivo study IV/IM/SC, serum G-CSF ELISA; details: rats, 0.05 mg/kg
Experimental: Formulations, listed in Table 31, were characterized by particle size, zeta potential, and encapsulation.
LNP formulations, shown in Table 31 (above), were administered to rats (n=5) intravenously (IV), intramuscularly (IM) or subcutaneously (SC) at a single modified mRNA dose of 0.05 mg/kg. A control group of rats (n=4) was untreated. […] The rats administered EPO modified mRNA intravenously were also bled at 7 days.

G-CSF [3] = test: Example 16 lipid nanoparticle in vivo study, serum G-CSF ELISA; design: species or system mice; details: 100 ug
[4] = test system: alanine transaminase (ALT); test: Example 22 non-human primate study, serum chemistry alanine transaminase (ALT); assay type: in vivo, cynomolgus monkey
Experimental: as §1

[5] = Female NHP, 0.005 mg/kg, 7 days
[6] = Female NHP, 0.005 mg/kg, Pre-dose
[7] = Female NHP, 0.05 mg/kg, Pre-dose
[8] = Female NHP, 0.5 mg/kg, Pre-dose
[9] = Male NHP, 0.005 mg/kg, Pre-dose
[10] = Female NHP, 0.005 mg/kg, 4 days

B1: G-CSF: human G-CSF mRNA SEQ ID NO: 6, polyA ~160 nt, Cap1, fully modified with 5-methylcytosine and pseudouridine (nucleic acid, listed as Homo sapiens)
chain: GGGAAAUAAGAGAGAAAAGAAGAGUAAGAAGAAAUAUAAGAGCCACCAUGGCCGGUCCCGCGACCCAAAGCCCCAUGAAACUUAUGGCCCUGCAGUUGCUGCUUUGGCACUCGGCCCUCUGGACAGUCCAAGAAGCGACUCCUCUCGGACCUGCCUCAUCGUUGCCGCAGUCAUUCCUUUUGAAGUGUCUGGAGCAGGUGCGAAAGAUUCAGGGCGAUGGAGCCGCACUCCAAGAGAAGCUCUGCGCGACAUACAAACUUUGCCAUCCCGAGGAGCUCGUACUGCUCGGGCACAGCUUGGGGAUUCCCUGGGCUCCUCUCUCGUCCUGUCCGUCGCAGGCUUUGCAGUUGGCAGGGUGCCUUUCCCAGCUCCACUCCGGUUUGUUCUUGUAUCAGGGACUGCUGCAAGCCCUUGAGGGAAUCUCGCCAGAAUUGGGCCCGACGCUGGACACGUUGCAGCUCGACGUGGCGGAUUUCGCAACAACCAUCUGGCAGCAGAUGGAGGAACUGGGGAUGGCACCCGCGCUGCAGCCCACGCAGGGGGCAAUGCCGGCCUUUGCGUCCGCGUUUCAGCGCAGGGCGGGUGGAGUCCUCGUAGCGAGCCACCUUCAAUCAUUUUUGGAAGUCUCGUACCGGGUGCUGAGACAUCUUGCGCAGCCGUGAAGCGCUGCCUUCUGCGGGGCUUGCCUUCUGGCCAUGCCCUUCUUCUCUCCCUUGCACCUGUACCUCUUGGUCUUUGAAUAAAGCCUGAGUAGGAAG
modifications: polyA ~160, Cap1, 5mC/pseudouridine modified
HEK293
  half-life: 8 to 10 h
Red blood cell (RBC); Female NHP, 0.005 mg/kg, 14/18 days
  RBC: 5.34 10^12/L
Red blood cell (RBC); Female NHP, 0.005 mg/kg, 24 hours
  RBC: 5.35 10^12/L
Red blood cell (RBC); Female NHP, 0.005 mg/kg, 3 days
  RBC: 5.24 10^12/L
Red blood cell (RBC); [5]
  RBC: 5.34 10^12/L
Red blood cell (RBC); [6]
  RBC: 5.36 10^12/L
Red blood cell (RBC); Female NHP, 0.05 mg/kg, 14/18 days
  RBC: 5.26 10^12/L
Red blood cell (RBC); Female NHP, 0.05 mg/kg, 24 hours
  RBC: 5.08 10^12/L
Red blood cell (RBC); Female NHP, 0.05 mg/kg, 3 days
  RBC: 5.04 10^12/L
Red blood cell (RBC); Female NHP, 0.05 mg/kg, 7 days
  RBC: 5.05 10^12/L
Red blood cell (RBC); [7]
  RBC: 5.64 10^12/L
Red blood cell (RBC); Female NHP, 0.5 mg/kg, 14/18 days
  RBC: 4.92 10^12/L
Red blood cell (RBC); Female NHP, 0.5 mg/kg, 24 hours
  RBC: 4.96 10^12/L
Red blood cell (RBC); Female NHP, 0.5 mg/kg, 3 days
  RBC: 4.97 10^12/L
Red blood cell (RBC); Female NHP, 0.5 mg/kg, 7 days
  RBC: 5.04 10^12/L
Red blood cell (RBC); [8]
  RBC: 5.57 10^12/L
Red blood cell (RBC); Male NHP, 0.005 mg/kg, 14/18 days
  RBC: 5.37 10^12/L
Red blood cell (RBC); Male NHP, 0.005 mg/kg, 24 hours
  RBC: 5.34 10^12/L
Red blood cell (RBC); Male NHP, 0.005 mg/kg, 3 days
  RBC: 5.32 10^12/L
Red blood cell (RBC); Male NHP, 0.005 mg/kg, 7 days
  RBC: 5.25 10^12/L
Red blood cell (RBC); [9]
  RBC: 5.67 10^12/L
Red blood cell (RBC); Male NHP, 0.05 mg/kg, 14/18 days
  RBC: 5.43 10^12/L
Red blood cell (RBC); Male NHP, 0.05 mg/kg, 24 hours
  RBC: 4.96 10^12/L
Red blood cell (RBC); Male NHP, 0.05 mg/kg, 3 days
  RBC: 5.13 10^12/L
Red blood cell (RBC); Male NHP, 0.05 mg/kg, 7 days
  RBC: 5.17 10^12/L
Red blood cell (RBC); Male NHP, 0.05 mg/kg, Pre-dose
  RBC: 5.68 10^12/L
Red blood cell (RBC); Male NHP, 0.5 mg/kg, 14/18 days
  RBC: 4.21 10^12/L
Red blood cell (RBC); Male NHP, 0.5 mg/kg, 24 hours
  RBC: 4.66 10^12/L
Red blood cell (RBC); Male NHP, 0.5 mg/kg, 3 days
  RBC: 4.91 10^12/L
Red blood cell (RBC); Male NHP, 0.5 mg/kg, 7 days
  RBC: 4.8 10^12/L
Red blood cell (RBC); Male NHP, 0.5 mg/kg, Pre-dose
  RBC: 5.57 10^12/L
Neutrophil count
  increase in neutrophil count above control: four fold increase
[1]; [10]
  IFN-alpha: 0 pg/mL
[1]; Female NHP, 0.005 mg/kg, Day 1 + 8 hr
  IFN-alpha: 0 pg/mL
[1]; [6]
  IFN-alpha: 0 pg/mL
[1]; Female NHP, 0.05 mg/kg, 4 days
  IFN-alpha: 0 pg/mL
[1]; Female NHP, 0.05 mg/kg, Day 1 + 8 hr
  IFN-alpha: 0 pg/mL
[1]; [7]
  IFN-alpha: 0 pg/mL
[1]; Female NHP, 0.5 mg/kg, 4 days
  IFN-alpha: 0 pg/mL
[1]; Female NHP, 0.5 mg/kg, Day 1 + 8 hr
  IFN-alpha: 529.2 pg/mL
[1]; [8]
  IFN-alpha: 0 pg/mL
[1]; Male NHP, 0.005 mg/kg, 4 days
  IFN-alpha: 0 pg/mL
[1]; Male NHP, 0.005 mg/kg, Day 1 + 8 hr
  IFN-alpha: 0 pg/mL
[1]; [9]
  IFN-alpha: 0 pg/mL
[1]; Male NHP, 0.05 mg/kg, 4 days
  IFN-alpha: 0 pg/mL
[1]; Male NHP, 0.05 mg/kg, Day 1 + 8 hr
  IFN-alpha: 0 pg/mL
[1]; Male NHP, 0.05 mg/kg, Pre-dose
  IFN-alpha: 0 pg/mL
[1]; Male NHP, 0.5 mg/kg, 4 days
  IFN-alpha: 0 pg/mL
[1]; Male NHP, 0.5 mg/kg, Day 1 + 8 hr
  IFN-alpha: 503.8 pg/mL
[1]; Male NHP, 0.5 mg/kg, Pre-dose
  IFN-alpha: 0 pg/mL
G-CSF [2]; IM, 2 hours
  G-CSF Serum Concentration: 1620.4 pg/mL
G-CSF [2]; IM, 8 hours
  G-CSF Serum Concentration: 7910.4 pg/mL
G-CSF [2]; IM, 24 hours
  G-CSF Serum Concentration: 893.3 pg/mL
G-CSF [2]; IM, 48 hours
  G-CSF Serum Concentration: OSC
G-CSF [2]; IM, 5 days
  G-CSF Serum Concentration: OSC
G-CSF [2]; IV
  G-CSF detectable to: 7 days
G-CSF [2]; IV, 2 hours
  G-CSF Serum Concentration: 31,331.9 pg/ml
G-CSF [2]; IV, 8 hours
  G-CSF Serum Concentration: 70,532.4 pg/ml
G-CSF [2]; IV, 24 hours
  G-CSF Serum Concentration: 5,738.6 pg/ml
G-CSF [2]; IV, 48 hours
  G-CSF Serum Concentration: 233.8 pg/mL
G-CSF [2]; IV, 5 days
  G-CSF Serum Concentration: 60.4 pg/mL
G-CSF [2]; SC, 2 hours
  G-CSF Serum Concentration: 80.3 pg/mL
G-CSF [2]; SC, 8 hours
  G-CSF Serum Concentration: 164.2 pg/mL
G-CSF [2]; SC, 24 hours
  G-CSF Serum Concentration: OSC
G-CSF [2]; SC, 48 hours
  G-CSF Serum Concentration: OSC
G-CSF [2]; SC, 5 days
  G-CSF Serum Concentration: OSC
G-CSF [2]; subcutaneous and intramuscular
  G-CSF detectable to at least: at least 8 hours
G-CSF [3]; IM, saline
  G-CSF Serum Concentration 8-12 hours after administration: ~20 to 80 pg/mL
G-CSF [3]; IV (Lipoplex)
  G-CSF Serum Concentration 8-12 hours after administration: ~30 pg/mL
G-CSF [3]; SC, saline
  G-CSF Serum Concentration 8-12 hours after administration: ~10 to 40 pg/mL
[4]; Female NHP, 0.005 mg/kg, 2 days
  ALT: 32 U/L
[4]; [10]
  ALT: 58 U/L
[4]; [5]
  ALT: 55 U/L
[4]; Female NHP, 0.005 mg/kg, 14 days
  ALT: 46 U/L
[4]; [6]
  ALT: 51 U/L
[4]; Female NHP, 0.05 mg/kg, 2 days
  ALT: 39 U/L
[4]; Female NHP, 0.05 mg/kg, 4 days
  ALT: 56 U/L
[4]; Female NHP, 0.05 mg/kg, 7 days
  ALT: 73 U/L
[4]; Female NHP, 0.05 mg/kg, 14 days
  ALT: 31 U/L
[4]; [7]
  ALT: 53 U/L
[4]; Female NHP, 0.5 mg/kg, 2 days
  ALT: 209 U/L
[4]; Female NHP, 0.5 mg/kg, 4 days
  ALT: 98 U/L
[4]; Female NHP, 0.5 mg/kg, 7 days
  ALT: 149 U/L
[4]; Female NHP, 0.5 mg/kg, 14 days
  ALT: 145 U/L
[4]; [8]
  ALT: 216 U/L
[4]; Male NHP, 0.005 mg/kg, 2 days
  ALT: 39 U/L
[4]; Male NHP, 0.005 mg/kg, 4 days
  ALT: 48 U/L
[4]; Male NHP, 0.005 mg/kg, 7 days
  ALT: 29 U/L
[4]; Male NHP, 0.005 mg/kg, 14 days
  ALT: 44 U/L
[4]; [9]
  ALT: 43 U/L
[4]; Male NHP, 0.05 mg/kg, 2 days
  ALT: 82 U/L
[4]; Male NHP, 0.05 mg/kg, 4 days
  ALT: 88 U/L
[4]; Male NHP, 0.05 mg/kg, 7 days
  ALT: 73 U/L
[4]; Male NHP, 0.05 mg/kg, 14 days
  ALT: 50 U/L
[4]; Male NHP, 0.05 mg/kg, Pre-dose
  ALT: 58 U/L
[4]; Male NHP, 0.5 mg/kg, 2 days
  ALT: 63 U/L
[4]; Male NHP, 0.5 mg/kg, 4 days
  ALT: 70 U/L
[4]; Male NHP, 0.5 mg/kg, 7 days
  ALT: 41 U/L
[4]; Male NHP, 0.5 mg/kg, 14 days
  ALT: 43 U/L
[4]; Male NHP, 0.5 mg/kg, Pre-dose
  ALT: 29 U/L
